Test results: article PMC2943749
Values joined by “and” are separate entries in the source; they are usually repeats but may differ in a detail not shown here. Equal entries are not always repeated.

Molecular target: PtdIns5P 4-kinase IIβ, genomically tagged with a FLAG-(His6)2 tag (DT40 cell line JPR3) (chicken (endogenous in DT40))
Experiment: affinity purification with mass spectrometry

ratio IIβ/IIα in the pull-down (peptide set 559/565): 1.39 and 1.37 and 1.75 | ratio IIβ/IIα in the pull-down (peptide set 829/828): 0.92 and 1.41 and 1.47
Substance: PtdIns5P 4-kinase IIα, endogenous and untagged (in JPR3 DT40 cells) (from UniProt Q5F356 1-405) (enzyme)
